Measurements as given in article PMC10397247.

How the values were obtained:
Assay in all cases: two-hybrid library CCmax;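 also: natural log of median RNA to DNA barcode read ratio; higher means stronger binding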
4H4038-AA = target: T1, 4H4038-AA; conditions: mean of both orientations
T1 chain: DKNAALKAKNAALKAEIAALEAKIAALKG

4H2622-AA = target: T2, 4H2622-AA; conditions: mean of both orientations
T2 chain: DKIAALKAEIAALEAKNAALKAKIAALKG

4H_GCN4 = conditions: mean of both orientations
4H3049-AA = target: T3, 4H3049-AA; conditions: mean of both orientations
T3 chain: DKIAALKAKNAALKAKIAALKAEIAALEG

O13-AA = target: T4, O13-AA; conditions: mean of both orientations
T4 chain: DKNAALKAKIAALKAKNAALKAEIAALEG

4H337-AA = target: T5, 4H337-AA; conditions: mean of both orientations
T5 chain: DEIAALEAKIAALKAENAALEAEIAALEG

4H1193-AA = target: T6, 4H1193-AA; conditions: mean of both orientations
T6 chain: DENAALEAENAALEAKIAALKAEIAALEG

4H2888-AA = target: T7, 4H2888-AA; conditions: mean of both orientations
T7 chain: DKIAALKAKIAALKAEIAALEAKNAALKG

4H3905-AA = target: T8, 4H3905-AA; conditions: mean of both orientations
T8 chain: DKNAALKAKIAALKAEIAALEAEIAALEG

O14-AA = target: T9, O14-AA; conditions: mean of both orientations
T9 chain: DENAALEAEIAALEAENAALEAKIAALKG

4H3587-AA = target: T10, 4H3587-AA; conditions: mean of both orientations
T10 chain: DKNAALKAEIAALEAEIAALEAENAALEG

4H1392-AA = target: T11, 4H1392-AA; conditions: mean of both orientations
T11 chain: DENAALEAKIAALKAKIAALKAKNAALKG

4H3625-AA = target: T12, 4H3625-AA; conditions: mean of both orientations
T12 chain: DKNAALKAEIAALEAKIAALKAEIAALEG

4H43-AA = target: T13, 4H43-AA; conditions: mean of both orientations
T13 chain: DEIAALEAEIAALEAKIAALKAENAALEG

O11-AA = target: T14, O11-AA
T14 chain: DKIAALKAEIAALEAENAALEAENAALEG

4H1385-AA = target: T15, 4H1385-AA; conditions: mean of both orientations
T15 chain: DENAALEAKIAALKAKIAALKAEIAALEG

4H134-AA = target: T16, 4H134-AA; conditions: mean of both orientations
T16 chain: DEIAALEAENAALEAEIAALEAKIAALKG

4H_BCR = target: T17, 4H_BCR; conditions: mean of both orientations
T17 chain: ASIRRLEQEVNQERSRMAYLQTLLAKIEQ

4H2736-AA = target: T18, 4H2736-AA; conditions: mean of both orientations
T18 chain: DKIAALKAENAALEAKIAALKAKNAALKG

4H510-AA = target: T19, 4H510-AA; conditions: mean of both orientations
T19 chain: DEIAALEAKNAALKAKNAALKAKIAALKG

4H3590-AA = target: T20, 4H3590-AA; conditions: mean of both orientations
T20 chain: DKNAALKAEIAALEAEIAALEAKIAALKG

4H451-AA = target: T21, 4H451-AA; conditions: mean of both orientations
T21 chain: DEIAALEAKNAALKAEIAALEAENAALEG

GCN2_T = target: GCN2_T
4H384-AA = target: T22, 4H384-AA
T22 chain: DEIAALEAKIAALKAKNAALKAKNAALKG

4H2705-AA = target: T23, 4H2705-AA; conditions: mean of both orientations
T23 chain: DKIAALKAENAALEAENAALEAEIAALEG

4H1070-AA = target: T24, 4H1070-AA
T24 chain: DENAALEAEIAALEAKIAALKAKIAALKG

4H1350-AA = target: T25, 4H1350-AA; conditions: mean of both orientations
T25 chain: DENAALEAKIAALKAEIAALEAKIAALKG

Sequence of 4H_GCN4 (chain, as listed by the source): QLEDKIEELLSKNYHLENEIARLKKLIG

B1: 4H1070-AA (peptide)
chain: DENAALEAEIAALEAKIAALKAKIAALKG
interaction score (4H4038-AA): 1.53
interaction score (4H2622-AA): 1.21
interaction score (4H_GCN4): -1.5
interaction score (4H3049-AA): 0.86
interaction score (O13-AA): -0.784
interaction score (4H337-AA): 0.472
interaction score (4H1193-AA): -0.64
interaction score (4H2888-AA): 1.51
interaction score (4H3905-AA): 2.23
interaction score (O14-AA): 0.236
interaction score (4H3587-AA): 1.56
interaction score (4H1392-AA): -0.733
interaction score (4H3625-AA): 1.73
interaction score (4H43-AA): 1.94
interaction score (O11-AA): 1.22
interaction score (4H1385-AA): 1.6
interaction score (4H134-AA): 1.2
interaction score (4H_BCR): -1.54
interaction score (4H2736-AA): -0.965
interaction score (4H510-AA): -1.68
interaction score (4H3590-AA): 2.25
interaction score (4H451-AA): -1.11
interaction score (GCN2_T): -0.746
interaction score (4H384-AA): -0.364
interaction score (4H2705-AA): -1.19
interaction score (4H1070-AA): 2.05
interaction score (4H1350-AA): 1.96
